Data reported in patent US12467929.

Legend:
[1] = molecular target: recombinant UBE3A protein (Homo sapiens (Human)) (UniProt Q05086); assay: Simoa head-to-head, Table 11; capture GTX; UBE3A 100 ng/ml
[2] = molecular target: recombinant UBE3A protein (Homo sapiens (Human)) (UniProt Q05086); assay: Simoa; capture GTX; SBG 150 pm; UBE3A 4.00 ng/ml
[3] = molecular target: recombinant UBE3A protein (Homo sapiens (Human)) (UniProt Q05086); assay: Simoa; capture GTX; SBG 100 pm; UBE3A 20.0 ng/ml
[4] = molecular target: recombinant UBE3A protein (Homo sapiens (Human)) (UniProt Q05086); assay: 3-step Simoa, 120 min bead step; capture GTX; UBE3A 0.160 ng/ml
[5] = molecular target: recombinant UBE3A protein (Homo sapiens (Human)) (UniProt Q05086); assay: Simoa head-to-head, Table 11; capture GTX; UBE3A 0.16 ng/ml
[6] = molecular target: recombinant UBE3A protein (Homo sapiens (Human)) (UniProt Q05086); assay: 3-step Simoa, 120 min bead step; capture GTX; UBE3A 20.0 ng/ml
[7] = molecular target: recombinant UBE3A protein (Homo sapiens (Human)) (UniProt Q05086); assay: Simoa; capture GTX, no helper beads; 3E5 0.4 ug/ml; UBE3A 20.0 ng/ml
[8] = molecular target: recombinant UBE3A protein (Homo sapiens (Human)) (UniProt Q05086); assay: Simoa; capture GTX, no helper beads; 3E5 0.4 ug/ml; UBE3A 4.00 ng/ml
[9] = molecular target: recombinant UBE3A protein (Homo sapiens (Human)) (UniProt Q05086); assay: Simoa; capture GTX, no helper beads; 3E5 0.1 ug/ml; UBE3A 0.160 ng/ml
[10] = molecular target: recombinant UBE3A protein (Homo sapiens (Human)) (UniProt Q05086); assay: Simoa head-to-head, Table 11; capture GTX; UBE3A 4.00 ng/ml
[11] = molecular target: recombinant UBE3A protein (Homo sapiens (Human)) (UniProt Q05086); assay: Simoa; capture GTX, no helper beads; 3E5 0.2 ug/ml; UBE3A 0.800 ng/ml
[12] = molecular target: recombinant UBE3A protein (Homo sapiens (Human)) (UniProt Q05086); assay: Simoa head-to-head, Table 11; capture MS 2F6; UBE3A 20.0 ng/ml
[13] = molecular target: recombinant UBE3A protein (Homo sapiens (Human)) (UniProt Q05086); assay: Simoa; capture GTX; 3E5 0.1 ug/ml; UBE3A 4.00 ng/ml
[14] = molecular target: recombinant UBE3A protein (Homo sapiens (Human)) (UniProt Q05086); assay: Simoa; capture GTX + helper beads; 3E5 0.4 ug/ml; UBE3A 0.0320 ng/ml
[15] = molecular target: recombinant UBE3A protein (Homo sapiens (Human)) (UniProt Q05086); assay: Simoa; capture GTX; 3E5 0.1 ug/ml; UBE3A 0.160 ng/ml
[16] = molecular target: recombinant UBE3A protein (Homo sapiens (Human)) (UniProt Q05086); assay: Simoa head-to-head, Table 11; capture GTX; UBE3A 0.80 ng/ml
[17] = molecular target: recombinant UBE3A protein (Homo sapiens (Human)) (UniProt Q05086); assay: Simoa; capture GTX + helper beads; 3E5 0.4 ug/ml; UBE3A 0.800 ng/ml
[18] = molecular target: recombinant UBE3A protein (Homo sapiens (Human)) (UniProt Q05086); assay: 3-step Simoa; capture GTX; UBE3A 500 ng/ml
[19] = molecular target: recombinant UBE3A protein (Homo sapiens (Human)) (UniProt Q05086); assay: 3-step Simoa; capture GTX; UBE3A 0.122 ng/ml
[20] = molecular target: recombinant UBE3A protein (Homo sapiens (Human)) (UniProt Q05086); assay: 3-step Simoa; capture GTX; UBE3A 7.81 ng/ml
[21] = molecular target: recombinant UBE3A protein (Homo sapiens (Human)) (UniProt Q05086); assay: 3-step Simoa; capture GTX; UBE3A 0.488 ng/ml

Sequence of UniProt Q05086 (Q05086 whole entry): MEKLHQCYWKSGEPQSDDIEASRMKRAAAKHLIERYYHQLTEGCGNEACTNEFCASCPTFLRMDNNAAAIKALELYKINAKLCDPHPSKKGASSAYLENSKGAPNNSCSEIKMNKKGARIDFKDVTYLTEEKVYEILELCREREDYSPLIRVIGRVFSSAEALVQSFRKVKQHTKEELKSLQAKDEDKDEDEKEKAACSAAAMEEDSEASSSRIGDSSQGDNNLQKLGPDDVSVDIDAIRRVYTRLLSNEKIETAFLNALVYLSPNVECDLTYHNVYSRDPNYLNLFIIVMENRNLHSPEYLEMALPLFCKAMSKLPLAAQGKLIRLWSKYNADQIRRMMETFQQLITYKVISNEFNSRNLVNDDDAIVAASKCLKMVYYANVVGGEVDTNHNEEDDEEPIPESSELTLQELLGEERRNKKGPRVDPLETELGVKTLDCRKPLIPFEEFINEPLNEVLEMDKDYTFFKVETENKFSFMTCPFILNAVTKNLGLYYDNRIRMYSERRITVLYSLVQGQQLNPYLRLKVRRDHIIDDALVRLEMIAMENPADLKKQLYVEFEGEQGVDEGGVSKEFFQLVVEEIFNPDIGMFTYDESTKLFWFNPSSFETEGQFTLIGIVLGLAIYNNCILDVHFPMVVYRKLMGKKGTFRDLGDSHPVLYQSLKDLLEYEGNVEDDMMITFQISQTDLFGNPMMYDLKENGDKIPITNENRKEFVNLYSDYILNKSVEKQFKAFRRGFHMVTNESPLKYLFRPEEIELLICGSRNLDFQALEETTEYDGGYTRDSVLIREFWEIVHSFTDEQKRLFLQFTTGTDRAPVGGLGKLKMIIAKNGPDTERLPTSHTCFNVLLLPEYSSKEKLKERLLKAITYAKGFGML

## anti-UBE3A antibody 3E5 (SAB1404508-100 ug, Millipore-Sigma)
[1]
  AEB1: 3.35
  AEB2: 3.51
  Ave AEB: 3.43
  Signal to Background: 419
[2]
  AEB1: 0.907
  AEB2: 0.938
  AEB3: 0.927
  Average AEB: 0.924
  Signal to Background: 69.7
[3]
  AEB1: 3.96
  AEB2: 3.97
  AEB3: 4.1
  Average AEB: 4.01
  Signal to Background: 478
[4]
  AEB1: 0.0398
  AEB2: 0.0389
  Ave AEB: 0.0393
  Signal to Background: 23.1
[5]
  AEB1: 0.0288
  AEB2: 0.0291
  Ave AEB: 0.0289
  Signal to Background: 3.53
[6]
  AEB1: 2.8
  AEB2: 2.88
  Ave AEB: 2.84
  Signal to Background: 1660
[7]
  AEB1: 6.8
  AEB2: 6.32
  Average AEB: 6.56
  Signal to Background: 336
[8]
  AEB1: 1.1
  AEB2: 1.11
  Average AEB: 1.11
  Signal to Background: 56.7
[9]
  AEB1: 0.0402
  AEB2: 0.0395
  Average AEB: 0.0399
  Signal to Background: 6.95
[10]
  AEB1: 0.269
  AEB2: 0.262
  Ave AEB: 0.266
  Signal to Background: 32.4
[11]
  AEB1: 0.25
  AEB2: 0.247
  Average AEB: 0.249
  Signal to Background: 25.7
[12]
  AEB1: 0.352
  AEB2: 0.348
  Ave AEB: 0.35
  Signal to Background: 92.5
[13]
  AEB1: 0.848
  AEB2: 0.891
  AEB3: 0.878
  Average AEB: 0.873
  Signal to Background: 45.3
[14]
  AEB1: 0.037
  AEB2: 0.0369
  Average AEB: 0.037
  Signal to Background: 1.89
[15]
  AEB1: 0.0828
  AEB2: 0.0846
  Average AEB: 0.0837
  Signal to Background: 4.34
[16]
  AEB1: 0.0916
  AEB2: 0.0961
  Ave AEB: 0.0939
  Signal to Background: 11.5
[17]
  AEB1: 0.341
  AEB2: 0.333
  Average AEB: 0.337
  Signal to Background: 17.2

## NB500-240 (Novus) (antibody)
[18]
  AEB1: 0.229
  AEB2: 0.218
  Ave AEB: 0.224
  Signal to Background: 102
[19]
  AEB1: 0.0021
  AEB2: 0.002
  Ave AEB: 0.002
  Signal to Background: 0.624
[20]
  AEB1: 0.0143
  AEB2: 0.0128
  Ave AEB: 0.0135
  Signal to Background: 6.2
[21]
  AEB1: 0.0023
  AEB2: 0.0026
  Ave AEB: 0.0025
  Signal to Background: 0.759
